In PMC3663513 one finds stoichiometry N data, which are given here for one substance.

This experiment has as its target Pseudo-nitzschia multiseries ferritin (Pseudo-nitzschia multiseries). Briefly: crystal structure; crystals of PmFTN grown by vapor diffusion (0.1 M sodium acetate pH 5.5, ammonium sulfate, NaCl), aerobic or anaerobic, soaked in 2 mM Fe(II) or 2 mM zinc sulfate; 24-mer shell built from 8 (P23) or 6 (P42(1)2) subunits in the asymmetric unit.

In general, stoichiometry N refers to the number of molecules, sites or subunits per partner or assembly. For the substance “Pseudo-nitzschia multiseries ferritin (natural protein)”, the stoichiometry N turned out to be 24 subunits.
